Reference: US20080085863A1 (WISCONSIN ALUMNI RESEARCH FOUNDATION, published 2008)

Legend:
[1] = molecular target: T1, Flag-tagged recombinant bone morphogenetic protein-1 (BMP-1) (UniProt P13497-2 121-730, limits assumed); experiment: cell-based or functional assay
T1 sequence (looked up): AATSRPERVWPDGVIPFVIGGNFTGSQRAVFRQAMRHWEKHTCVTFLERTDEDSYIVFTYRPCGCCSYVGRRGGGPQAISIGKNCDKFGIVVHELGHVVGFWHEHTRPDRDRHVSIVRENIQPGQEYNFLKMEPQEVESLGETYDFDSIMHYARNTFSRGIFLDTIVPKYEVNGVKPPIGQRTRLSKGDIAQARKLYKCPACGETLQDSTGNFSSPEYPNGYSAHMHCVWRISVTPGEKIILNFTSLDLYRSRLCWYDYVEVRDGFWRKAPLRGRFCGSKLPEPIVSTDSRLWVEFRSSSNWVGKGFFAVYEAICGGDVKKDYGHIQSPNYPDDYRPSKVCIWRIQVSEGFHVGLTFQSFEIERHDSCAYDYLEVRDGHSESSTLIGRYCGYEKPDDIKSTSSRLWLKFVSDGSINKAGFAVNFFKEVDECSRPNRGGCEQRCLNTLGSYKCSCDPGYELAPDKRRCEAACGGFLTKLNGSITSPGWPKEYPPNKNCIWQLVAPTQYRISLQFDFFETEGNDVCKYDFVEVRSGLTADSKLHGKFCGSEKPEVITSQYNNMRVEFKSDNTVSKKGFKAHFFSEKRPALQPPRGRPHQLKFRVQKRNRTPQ

[2] = molecular target: T1, Flag-tagged recombinant bone …; experiment: time course of covalent complex formation of 40 nM 35S-BMP-1 with increasing b-α2M, SDS-PAGE densitometry (method of Enghild et al.)
Experimental: (§1) 40 nM ³⁵S-labeled BMP-1 was incubated with 20, 40, 80, 160, and 240 nM plasma α₂M, or recombinant wild type α₂M or with 5, 10, 20, 40, and 80 nM b-α₂M at 37° C. in 50 mM Tris-HCl, pH 7.5, 100 mM NaCl and 10 mM CaCl₂. Reactions were stopped at 10, 30, 60, 90 and 120 minutes (plasma α₂M and recombinant wild type α₂M), or at 2, 5, 10, 20 and 30 minutes (b-α₂M) by adding. SDS-PAGE sample buffer and boiling 5 minutes at 95° C. Protein samples were separated on 7.5% acrylamide SDS-PAGE gels, which were then treated with EN³HANCE (DuPont) and exposed to film. Percentages of BMP-1 incorporated into high molecular weight complexes were determined by densitometry and kinetic parameters were determined essentially via the method of Enghild J, et al, “Interaction of human rheumatoid synovial collagenase (matrix metalloproteinase 1) and stromelysin (matrix metalloproteinase 3) with human alpha 2-macroglobulin and chicken ovostatin. Binding kinetics and identification of matrix metalloproteinase cleavage sites,” J. Biol. Chem. 264:8779-8785 (1989).
(§2) To obtain a quantitative comparison of the rates of interaction of BMP-1 with the various wild type and mutant forms of α₂M, we employed the methodology of Enghild et al., supra, which involves quantification of covalent proteinase-α₂M complex formation, subsequent to incubation of radiolabeled proteinase with α₂M.

[3] = molecular target: T1, Flag-tagged recombinant bone …; experiment: ratio of second order rate constants, 35S-BMP-1 complex formation
Experimental: as §1, §2

- pCP inhibitory activity, IC50 [1]: 1.88 nM
- α2M inhibition of BMP-1 (fold enhancement over the native bait region) [1]: ~25 fold
- Ki [2]: 36.4 nM
- Relative effectiveness (against recombinant α2M = 1) [3]: 23.7 fold
- fold more effective in interacting with BMP-1 than wild type α2M from plasma (second order rate constants) [3]: 15.7 fold
B1: recombinant mutant α2-macroglobulin with the native bait region replaced by sequences flanking the human probiglycan BMP-1 cleavage site (b-α2M) (other)
chain: DYKDDDDKSVSGKPQYMVLVPSLLHTETTEKGCVLLSYLNETVTVSASLESVRGNRSLFTDLEAENDVLHCVAFAVPKSSSNEEVMFLTVQVKGPTQEFKKRTTVMVKNEDSLVFVQTDKSIYKPGQTVKFRVVSMDENFHPLNELIPLVYIQDPKGNRIAQWQSFQLEGGLKQFSFPLSSEPFQGSYKVVVQKKSGGRTEHPFTVEEFVLPKFEVQVTVPKIITILEEEMNVSVCGLYTYGKPVPGHVTVSICRKYSDASDCHGEDSQAFCEKFSGQLNSHGCFYQQVKTKVFQLKRKEYEMKLHTEAQIQEEGTVVELTGRQSSEITRTITKLSFVKVDSHFRQGIPFFGQVRLVDGKGVPIPNKVIFIRGNEANYYSNATTDEHGLVQFSINTTNVMGTSLTVRVNYKDRSPCYGYQWVSEEHEEAHHTAYLVFSPSKSFVHLEPMSHELPCGHTQTVQAHYILNGGTLLGLKKLSFYYLIMAKGGIVRTGTHGLLVKQEDMKGHFSISIPVKSDIAPVARLLIYAVLPTGDVIGDSAKYDVENCLANKVDLSFSPSQSLPASHAHLRVTAAPQSVCALRAVDQSVLLMKPDAELSASSVYNLLPEKDLTGFPGPLNDQDDEDCINRHNVYINGITYTPVSSTNEKDMYSFLEDMGLKAFTNSKIRKPKMCPQFWDFTLDDGPFMMNDEEASGADTSGVLDPDSVTPTYSAMVRKYFPETWIWDLVVVNSAGVAEVGVTVPDTITEWKAGAFCLSEDAGLGISSTASLRAFQPFFVELTMPYSVIRGEAFTLKATVLNYLPKCIRVSVQLEASPAFLAVPVEKEQAPHCICANGRQTVSWAVTPKSLGNVNFTVSAEALESQELCGTEVPSVPEHGRKDTVIKPLLVEPEGLEKETTFNSLLCPSGGEVSEELSLKLPPNVVEESARASVSVLGDILGSAMQNTQNLLQMPYGCGEQNMVLFAPNIYVLDYLNETQQLTPEIKSKAIGYLNTGYQRQLNYKHYDGSYSTFGERYGRNQGNTWLTAFVLKTFAQARAYIFIDEAHITQALIWLSQRQKDNGCFRSSGSLLNNAIKGGVEDEVTLSAYITIALLEIPLTVTHPVVRNALFCLESAWKTAQEGDHGSHVYTKALLAYAFALAGNQDKRKEVLKSLNEEAVKKDNSVHWERPQKPKAPVGHFYEPQAPSAEVEMTSYVLLAYLTAQPAPTSEDLTSATNIVKWITKQQNAQGGFSSTQDTVVALHALSKYGAATFTRTGKAAQVTIQSSGTFSSKFQVDNNNRLLLQQVSLPELPGEYSMKVTGEGCVYLQTSLKYNILPEKEEFPFALGVQTLPQTCDEPKAHTSFQISLSVSYTGSRSASNMAIVDVKMVSGFIPLKPTVKMLERSNHVSRTEVSSNHVLIYLDKVSNQTLSLFFTVLQDVPVRDLKPAIVKVYDYYETDEFAIAEYNAPCSKDLGNA
modifications: One subunit is given; cross-linking showed that the protein forms tetramers. The internal thioester and glycosylation are not carried by the letters.
notes: also called recombinant b-α2M; modified α2M
